Assay [1] concerns the target T1, human programmed cell death protein 1 (hPD-1) C93S (aa 24-167) (Homo sapiens, UniProt Q15116, C93S).
T1 construct: made as a fusion with a TEV site and human Fc; the Fc was cut off with TEV protease; source: Expi293F, purified (Protein A, TEV cleavage of Fc, SEC; monomer fractions); not shown: Fc (human), C-terminal, cleaved
Briefly: SPR; Carterra LSA; Fab from the ammonium sulfate precipitate of the culture supernatant immobilised on a NiHC200M chip; hPD-1 (1-1024 nM) or mPD-1-Fc (4-1024 nM) as analyte, fourfold dilution series, no regeneration; HBS-EP pH 7.4, 25 °C; medians over the spots of a construct, KD = koff/kon. Conditions: one partner purified. In a few lines: (§1)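 Fabs from Brevibacillus culture supernatants were ammonium sulfate-precipitated, redissolved in HBS-EP and captured in duplicate on a NiHC200M chip (Carterra LSA, 25 °C). Human PD-1 (1–1024 nM) or mouse PD-1-Fc (4–1024 nM) flowed as fourfold series without regeneration, with 10 min association and 5 min dissociation; unconfirmed binders were set to kon 10^3 […], koff 10^−2 s^−1. Rates came from kdka model fits (slow- or fast-dissociation settings, best fit); KD is koff/kon from per-construct medians.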

Assay [2] concerns the target T2, mouse programmed cell death protein 1 Fc fusion protein (mPD-1-Fc), mPD-1 C60S (aa 25-167) (Mus musculus, UniProt Q02242, stabilised).
T2 construct: not cleaved; source: Expi293F, purified (Protein A, SEC; dimeric fraction); not shown: Fc (human), C-terminal, kept
Described as above. Conditions: one partner purified. In a few lines: as §1

T1 sequence (Q15116 24-167 C93S): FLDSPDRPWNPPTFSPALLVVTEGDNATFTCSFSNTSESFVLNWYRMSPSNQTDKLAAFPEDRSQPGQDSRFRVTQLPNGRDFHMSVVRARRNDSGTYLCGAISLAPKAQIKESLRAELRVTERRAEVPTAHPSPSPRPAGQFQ

B1: toripalimab Fab L.T36A (Fab, V domains shown)
VH: QGQLVQSGAEVKKPGASVKVSCKASGYTFTDYEMHWVRQAPIHGLEWIGVIESETGGTAYNQKFKGRVTITADKSTSTAYMELSSLRSEDTAVYYCAREGITTVATTYYWYFDVWGQGTTVTVSS
VL: DVVMTQSPLSLPVTLGQPASISCRSSQSIVHSNGNAYLEWYLQKPGQSPQLLIYKVSNRFSGVPDRFSGSGSGTDFTLKISRVEAEDVGVYYCFQGSHVPLTFGQGTKLEIK
notes: as the heavy chain of Sm3; light chain of Sm3 with this change; numbers count from the chain's first residue; source: Brevibacillus, culture supernatant (ammonium sulfate precipitate); not shown: 6xHis, C-terminal, kept; 6xHN, C-terminal, kept
A word on the Kd: it is the constant that tells how readily two partners part at equilibrium. Low values mean higher affinity, high ones lower affinity. As a reminder, the koff is a measure of how fast the partners let go of each other. What is called kon is the rate constant with which the complex forms. As for B1, in assay [1], the Kd was below 0.00151 µM, the koff was below 1e-05 s⁻¹ and the kon is 6610 M⁻¹ s⁻¹. Further, in assay [2], binding was put at a Kd of 0.331 µM, the koff was 0.0155 s⁻¹ and the kon was 46700 M⁻¹ s⁻¹.

B2: toripalimab Fab H.V50A (Fab, V domains shown)
VH: QGQLVQSGAEVKKPGASVKVSCKASGYTFTDYEMHWVRQAPIHGLEWIGAIESETGGTAYNQKFKGRVTITADKSTSTAYMELSSLRSEDTAVYYCAREGITTVATTYYWYFDVWGQGTTVTVSS
VL: DVVMTQSPLSLPVTLGQPASISCRSSQSIVHSNGNTYLEWYLQKPGQSPQLLIYKVSNRFSGVPDRFSGSGSGTDFTLKISRVEAEDVGVYYCFQGSHVPLTFGQGTKLEIK
notes: heavy chain of Sm3 with this change; numbers count from the chain's first residue; as the light chain of Sm3; source: Brevibacillus, culture supernatant (ammonium sulfate precipitate); not shown: 6xHis, C-terminal, kept; 6xHN, C-terminal, kept
In assay [1], B2 gave a Kd of 0.00166 µM, a koff of 2.65e-05 s⁻¹ and a kon of 15900 M⁻¹ s⁻¹. In assay [2], this molecule yielded a Kd of 0.728 µM, a koff of 0.0237 s⁻¹ and a kon of 32500 M⁻¹ s⁻¹.

B3: toripalimab Fab L.K55Y (Fab, V domains shown)
VH: QGQLVQSGAEVKKPGASVKVSCKASGYTFTDYEMHWVRQAPIHGLEWIGVIESETGGTAYNQKFKGRVTITADKSTSTAYMELSSLRSEDTAVYYCAREGITTVATTYYWYFDVWGQGTTVTVSS
VL: DVVMTQSPLSLPVTLGQPASISCRSSQSIVHSNGNTYLEWYLQKPGQSPQLLIYYVSNRFSGVPDRFSGSGSGTDFTLKISRVEAEDVGVYYCFQGSHVPLTFGQGTKLEIK
notes: as for B1
In assay [1], B3 registered a Kd of 0.0014 µM, a koff of 1.3e-05 s⁻¹ and a kon of 9280 M⁻¹ s⁻¹. Besides, in assay [2], binding was characterised by a dissociation constant (Kd) of 0.235 µM, the off-rate constant (koff) was 0.0094 s⁻¹ and the kon was 40000 M⁻¹ s⁻¹.

B4: toripalimab Fab L.S57A (Fab, V domains shown)
VH: QGQLVQSGAEVKKPGASVKVSCKASGYTFTDYEMHWVRQAPIHGLEWIGVIESETGGTAYNQKFKGRVTITADKSTSTAYMELSSLRSEDTAVYYCAREGITTVATTYYWYFDVWGQGTTVTVSS
VL: DVVMTQSPLSLPVTLGQPASISCRSSQSIVHSNGNTYLEWYLQKPGQSPQLLIYKVANRFSGVPDRFSGSGSGTDFTLKISRVEAEDVGVYYCFQGSHVPLTFGQGTKLEIK
notes: as for B1
Consider B4, for which, in assay [1], the Kd is below 0.000698 µM, the koff was below 1e-05 s⁻¹ and the on-rate constant (kon) was 14300 M⁻¹ s⁻¹. Moreover, in assay [2], the Kd was determined as 0.209 µM, the koff amounted to 0.00805 s⁻¹ and the kon came out at 38500 M⁻¹ s⁻¹.

B5: toripalimab Fab L.L38A (Fab, V domains shown)
VH: QGQLVQSGAEVKKPGASVKVSCKASGYTFTDYEMHWVRQAPIHGLEWIGVIESETGGTAYNQKFKGRVTITADKSTSTAYMELSSLRSEDTAVYYCAREGITTVATTYYWYFDVWGQGTTVTVSS
VL: DVVMTQSPLSLPVTLGQPASISCRSSQSIVHSNGNTYAEWYLQKPGQSPQLLIYKVSNRFSGVPDRFSGSGSGTDFTLKISRVEAEDVGVYYCFQGSHVPLTFGQGTKLEIK
notes: as for B1
In assay [1], B5 displayed a Kd below 0.00111 µM, a koff below 1e-05 s⁻¹ and a kon of 8980 M⁻¹ s⁻¹. In assay [2], this molecule came in with a Kd of 0.121 µM, a koff of 0.00533 s⁻¹ and a kon of 44000 M⁻¹ s⁻¹.

B6: toripalimab Fab L.V56Y (Fab, V domains shown)
VH: QGQLVQSGAEVKKPGASVKVSCKASGYTFTDYEMHWVRQAPIHGLEWIGVIESETGGTAYNQKFKGRVTITADKSTSTAYMELSSLRSEDTAVYYCAREGITTVATTYYWYFDVWGQGTTVTVSS
VL: DVVMTQSPLSLPVTLGQPASISCRSSQSIVHSNGNTYLEWYLQKPGQSPQLLIYKYSNRFSGVPDRFSGSGSGTDFTLKISRVEAEDVGVYYCFQGSHVPLTFGQGTKLEIK
notes: as for B1
On to B6, for which, in assay [1], the Kd is below 0.00147 µM, the koff is below 1e-05 s⁻¹ and the kon worked out at 6790 M⁻¹ s⁻¹. In assay [2], this molecule yielded a Kd of 0.29 µM, a koff of 0.0104 s⁻¹ and a kon of 35800 M⁻¹ s⁻¹.

B7: toripalimab Fab L.R59A (Fab, V domains shown)
VH: QGQLVQSGAEVKKPGASVKVSCKASGYTFTDYEMHWVRQAPIHGLEWIGVIESETGGTAYNQKFKGRVTITADKSTSTAYMELSSLRSEDTAVYYCAREGITTVATTYYWYFDVWGQGTTVTVSS
VL: DVVMTQSPLSLPVTLGQPASISCRSSQSIVHSNGNTYLEWYLQKPGQSPQLLIYKVSNAFSGVPDRFSGSGSGTDFTLKISRVEAEDVGVYYCFQGSHVPLTFGQGTKLEIK
notes: as for B1
Turning to B7, in assay [1], the Kd was below 0.000377 µM, the koff was below 1e-05 s⁻¹ and the kon amounted to 26600 M⁻¹ s⁻¹. In assay [2], the dissociation constant Kd came to 0.13 µM, the koff came out at 0.00551 s⁻¹ and the kon worked out at 42400 M⁻¹ s⁻¹.

B8: toripalimab Fab L.K55A (Fab, V domains shown)
VH: QGQLVQSGAEVKKPGASVKVSCKASGYTFTDYEMHWVRQAPIHGLEWIGVIESETGGTAYNQKFKGRVTITADKSTSTAYMELSSLRSEDTAVYYCAREGITTVATTYYWYFDVWGQGTTVTVSS
VL: DVVMTQSPLSLPVTLGQPASISCRSSQSIVHSNGNTYLEWYLQKPGQSPQLLIYAVSNRFSGVPDRFSGSGSGTDFTLKISRVEAEDVGVYYCFQGSHVPLTFGQGTKLEIK
notes: as for B1
In assay [1], B8 returned a Kd below 0.00118 µM, a koff below 1e-05 s⁻¹ and a kon of 8480 M⁻¹ s⁻¹. Further, in assay [2], the affinity, expressed as Kd, was 0.182 µM; the koff is 0.00821 s⁻¹; the kon stood at 45200 M⁻¹ s⁻¹.

B9: toripalimab Fab L.N58A (Fab, V domains shown)
VH: QGQLVQSGAEVKKPGASVKVSCKASGYTFTDYEMHWVRQAPIHGLEWIGVIESETGGTAYNQKFKGRVTITADKSTSTAYMELSSLRSEDTAVYYCAREGITTVATTYYWYFDVWGQGTTVTVSS
VL: DVVMTQSPLSLPVTLGQPASISCRSSQSIVHSNGNTYLEWYLQKPGQSPQLLIYKVSARFSGVPDRFSGSGSGTDFTLKISRVEAEDVGVYYCFQGSHVPLTFGQGTKLEIK
notes: as for B1
In assay [1], B9 displayed a Kd below 0.00131 µM, a koff below 1e-05 s⁻¹ and a kon of 7630 M⁻¹ s⁻¹. In assay [2], this molecule registered a dissociation constant (Kd) of 0.186 µM, a koff of 0.00793 s⁻¹ and a kon of 42600 M⁻¹ s⁻¹.

B10: toripalimab Fab L.S57Y (Fab, V domains shown)
VH: QGQLVQSGAEVKKPGASVKVSCKASGYTFTDYEMHWVRQAPIHGLEWIGVIESETGGTAYNQKFKGRVTITADKSTSTAYMELSSLRSEDTAVYYCAREGITTVATTYYWYFDVWGQGTTVTVSS
VL: DVVMTQSPLSLPVTLGQPASISCRSSQSIVHSNGNTYLEWYLQKPGQSPQLLIYKVYNRFSGVPDRFSGSGSGTDFTLKISRVEAEDVGVYYCFQGSHVPLTFGQGTKLEIK
notes: as for B1
In assay [1], B10 returned an equilibrium dissociation constant (Kd) below 0.000338 µM, a koff below 1e-05 s⁻¹ and a kon of 29500 M⁻¹ s⁻¹. In assay [2], this molecule gave a Kd of 0.119 µM, a koff of 0.0054 s⁻¹ and a kon of 45300 M⁻¹ s⁻¹.

B11: toripalimab Fab L.N58Y (Fab, V domains shown)
VH: QGQLVQSGAEVKKPGASVKVSCKASGYTFTDYEMHWVRQAPIHGLEWIGVIESETGGTAYNQKFKGRVTITADKSTSTAYMELSSLRSEDTAVYYCAREGITTVATTYYWYFDVWGQGTTVTVSS
VL: DVVMTQSPLSLPVTLGQPASISCRSSQSIVHSNGNTYLEWYLQKPGQSPQLLIYKVSYRFSGVPDRFSGSGSGTDFTLKISRVEAEDVGVYYCFQGSHVPLTFGQGTKLEIK
notes: as for B1
B11: in assay [1], the equilibrium dissociation constant (Kd) is below 0.00162 µM, the koff is below 1e-05 s⁻¹ and the kon amounted to 6150 M⁻¹ s⁻¹. Further, in assay [2], the Kd amounted to 0.226 µM, the koff is 0.00916 s⁻¹ and the kon was 40500 M⁻¹ s⁻¹.

B12: toripalimab Fab L.V56A (Fab, V domains shown)
VH: QGQLVQSGAEVKKPGASVKVSCKASGYTFTDYEMHWVRQAPIHGLEWIGVIESETGGTAYNQKFKGRVTITADKSTSTAYMELSSLRSEDTAVYYCAREGITTVATTYYWYFDVWGQGTTVTVSS
VL: DVVMTQSPLSLPVTLGQPASISCRSSQSIVHSNGNTYLEWYLQKPGQSPQLLIYKASNRFSGVPDRFSGSGSGTDFTLKISRVEAEDVGVYYCFQGSHVPLTFGQGTKLEIK
notes: as for B1
In assay [1], B12 registered a Kd below 0.000489 µM, a koff below 1e-05 s⁻¹ and a kon of 20400 M⁻¹ s⁻¹. Besides, in assay [2], the affinity, expressed as Kd, was 0.202 µM; the koff was determined as 0.00784 s⁻¹; the kon came out at 38700 M⁻¹ s⁻¹.

B13: toripalimab Fab L.T36Y (Fab, V domains shown)
VH: QGQLVQSGAEVKKPGASVKVSCKASGYTFTDYEMHWVRQAPIHGLEWIGVIESETGGTAYNQKFKGRVTITADKSTSTAYMELSSLRSEDTAVYYCAREGITTVATTYYWYFDVWGQGTTVTVSS
VL: DVVMTQSPLSLPVTLGQPASISCRSSQSIVHSNGNYYLEWYLQKPGQSPQLLIYKVSNRFSGVPDRFSGSGSGTDFTLKISRVEAEDVGVYYCFQGSHVPLTFGQGTKLEIK
notes: as for B1
Regarding B13, in assay [1], the Kd is below 0.000372 µM, the koff was below 1e-05 s⁻¹ and the kon was determined as 26900 M⁻¹ s⁻¹. In addition, in assay [2], the affinity, expressed as Kd, was 0.164 µM; the koff was determined as 0.00757 s⁻¹; the kon worked out at 46100 M⁻¹ s⁻¹.

The values are drawn from publication PMC10663500, “High-throughput analysis system of interaction kinetics for data-driven antibody design” (Scientific Reports, 2023).
